Experimental data as given in paper PMC3335734.

What was measured:
[1] = molecular target: T1, FliM-YFP (E. coli) (UniProt P06974)
T1 sequence: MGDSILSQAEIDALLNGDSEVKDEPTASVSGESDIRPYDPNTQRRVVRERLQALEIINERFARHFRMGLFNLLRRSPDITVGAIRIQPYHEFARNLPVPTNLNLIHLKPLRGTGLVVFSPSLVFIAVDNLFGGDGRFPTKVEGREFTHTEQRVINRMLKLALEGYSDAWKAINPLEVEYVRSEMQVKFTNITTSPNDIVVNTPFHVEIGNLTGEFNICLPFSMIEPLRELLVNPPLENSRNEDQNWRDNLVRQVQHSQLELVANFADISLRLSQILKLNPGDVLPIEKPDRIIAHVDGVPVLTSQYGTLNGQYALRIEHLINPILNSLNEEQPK

[2] = molecular target: T2, wild-type FliM (E. coli) (UniProt P06974)
T2 sequence: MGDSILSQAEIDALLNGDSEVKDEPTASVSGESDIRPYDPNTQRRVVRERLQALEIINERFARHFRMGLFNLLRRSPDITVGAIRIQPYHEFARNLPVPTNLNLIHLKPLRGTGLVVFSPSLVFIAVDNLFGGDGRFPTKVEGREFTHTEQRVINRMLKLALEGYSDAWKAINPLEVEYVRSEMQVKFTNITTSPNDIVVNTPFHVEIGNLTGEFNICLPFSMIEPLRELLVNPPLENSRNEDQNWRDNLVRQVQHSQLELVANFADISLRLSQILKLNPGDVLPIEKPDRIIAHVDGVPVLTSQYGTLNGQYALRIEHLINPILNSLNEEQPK

B1: CheY-P (natural protein)
chain: MADKELKFLVVDDFSTMRRIVRNLLKELGFNNVEEAEDGVDALNKLQAGGYGFVISDWNMPNMDGLELLKTIRADGAMSALPVLMVTAEAKKENIIAAAQAGASGYVVKPFTAATLEEKLNKIFEKLGM
modifications: phosphorylated (CheY-P); residue not given
With B1 the CW bias of motors, bead assay, cheR cheB cells expressing FliM-YFP [1] was 61%, the speed of motors, bead assay, cheR cheB cells expressing FliM-YFP [1] was 50.4 Hz and the switching rate of motors, bead assay, cheR cheB cells expressing FliM-YFP [1] was 3.8 s⁻¹. It also gave a CW bias of motors, bead assay, cheR cheB cells expressing wild-type FliM [2] of 58%, a speed of motors, bead assay, cheR cheB cells expressing wild-type FliM [2] of 51.5 Hz and a switching rate of motors, bead assay, cheR cheB cells expressing wild-type FliM [2] of 3.4 s⁻¹.
